Source: paper PMC3288515
Where two headings read alike, the source gives them in different places.

How the values were obtained:
Experiment in all cases: EMSA
PU.1 [1] = biological target: T1, PU.1 (UniProt P17433 1-272)
[2] = biological target: T2, STAT5 (STAT5a cDNA used for the retroviral construct) (UniProt P42230 1-793)
[3] = biological target: T2, STAT5 (STAT5a cDNA used for the …); remark: listed apart in the source
PU.1 [4] = biological target: T1, PU.1; remark: listed apart in the source

T2 sequence (P42230 whole entry): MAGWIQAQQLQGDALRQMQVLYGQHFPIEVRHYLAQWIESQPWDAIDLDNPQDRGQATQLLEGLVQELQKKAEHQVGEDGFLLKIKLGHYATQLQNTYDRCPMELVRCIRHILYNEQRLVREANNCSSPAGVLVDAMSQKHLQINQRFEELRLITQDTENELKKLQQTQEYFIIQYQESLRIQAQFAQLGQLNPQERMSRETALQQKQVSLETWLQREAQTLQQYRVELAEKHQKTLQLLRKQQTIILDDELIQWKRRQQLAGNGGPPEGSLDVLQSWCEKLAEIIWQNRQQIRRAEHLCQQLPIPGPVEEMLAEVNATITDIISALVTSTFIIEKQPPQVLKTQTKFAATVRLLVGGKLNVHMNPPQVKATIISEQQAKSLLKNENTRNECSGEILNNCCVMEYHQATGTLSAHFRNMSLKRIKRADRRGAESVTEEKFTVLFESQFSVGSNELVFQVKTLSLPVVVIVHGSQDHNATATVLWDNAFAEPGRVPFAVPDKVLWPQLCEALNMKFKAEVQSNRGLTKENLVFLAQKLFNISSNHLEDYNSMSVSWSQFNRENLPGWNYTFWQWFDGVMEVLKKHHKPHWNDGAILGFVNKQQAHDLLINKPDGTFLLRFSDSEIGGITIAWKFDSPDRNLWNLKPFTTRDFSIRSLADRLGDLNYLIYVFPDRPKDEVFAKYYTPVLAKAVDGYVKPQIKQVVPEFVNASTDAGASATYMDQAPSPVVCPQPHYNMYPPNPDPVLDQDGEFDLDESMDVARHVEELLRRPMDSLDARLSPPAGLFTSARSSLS

B1: κE3' PU.1-STAT5 probe (dsDNA)
DNA 1: CTTTGAGGAACTGAAAACAGAACCT
DNA 2: AGGTTCTGTTTTCAGTTCCTCAAAG
binding result (PU.1 [1]): binds
binding result [2]: binds

B2: SV40 PU.1 probe (dsDNA)
DNA 1: TGAAATAACCTCTGAAAGAGGAACTTGGTTAGGTA
DNA 2: TACCTAACCAAGTTCCTCTTTCAGAGGTTATTTCA
binding result [3]: no binding
binding result (PU.1 [4]): binds
